Laboratory results taken from patent US20170157251A1, “Bi-Specific Monovalent Diabodies That are Capable of Binding CD19 and CD3, and Uses Thereof” (MacroGenics, Inc., priority 2015, published 2017).

Key:
[1] = tested on: cynomolgus monkey blood leukocytes; experiment: Flow cytometry binding to cynomolgus monkey blood leukocytes (B and T cells); details: 0.005 to 80 nM
Procedure: (§1) Following incubation, binding to leukocytes was detected using a biotinylated anti-E-coil/K-coil (EK) mAb, which recognizes the EK coil heterodimerization region of the DART proteins and streptavidin-PE. […] Similarly, CD20 was used as a B cell marker instead of CD19. Therefore, in this study, the CD4+ and CD8+ gated events represent the T cell population and CD20+ gated events represent the B cell population.

human blood leukocytes = experiment: Flow cytometry binding to human blood leukocytes (B and T cells); details: 0.005 to 80 nM
Procedure: as §1

B1: Control DART 2: control DART capable of binding to fluorescein and CD19 (protein)
chain 1: ENVLTQSPATLSVTPGEKATITCRASQSVSYMHWYQQKPGQAPRLLIYDASNRASGVPSRFSGSGSGTDHTLTISSLEAEDAATYYCFQGSVYPFTFGQGTKLEIKGGGSGGGGEVKLDETGGGLVQPGRPMKLSCVASGFTFSDYWMNWVRQSPEKGLEWVAQIRNKPYNYETYYSDSVKGRFTISRDDSKSSVYLQMNNLRVEDMGIYYCTGSYYGMDYWGQGTSVTVSSASTKGEVAACEKEVAALEKEVAALEKEVAALEKGGGDKTHTCPPCPAPEAAGGPSVFLFPPKPKDTLMISRTPEVTCVVVDVSHEDPEVKFNWYVDGVEVHNAKTKPREEQYNSTYRVVSVLTVLHQDWLNGKEYKCKVSNKALPAPIEKTISKAKGQPREPQVYTLPPSREEMTKNQVSLWCLVKGFYPSDIAVEWESNGQPENNYKTTPPVLDSDGSFFLYSKLTVDKSRWQQGNVFSCSVMHEALHNHYTQKSLSLSPGK
chain 2: QAVVTQEPSLTVSPGGTVTLTCRSSTGAVTTSNYANWVQQKPGQAPRGLIGGTNKRAPWTPARFSGSLLGGKAALTITGAQAEDEADYYCALWYSNLWVFGGGTKLTVLGGGGSGGGGEVKLDETGGGLVQPGRPMKLSCVASGFTFSDYWMNWVRQSPEKGLEWVAQIRNKPYNYETYYSDSVKGRFTISRDDSKSSVYLQMNNLRVEDMGIYYCTGSYYGMDYWGQGTSVTVSSASTKGKVAACKEKVAALKEKVAALKEKVAALKE
modifications: Amino Acid Sequence of the First Polypeptide Chain of Control DART 2; Amino Acid Sequence of the Second Polypeptide Chain of Control DART 2
binding to B cells (CD20+) and T cells (CD4+ and CD8+) [1]: only mono-specific binding to B cells
binding to B cells (CD20+) and T cells (CD4+ and CD8+) (human blood leukocytes): only mono-specific binding to B cells
